Data: the supplement of paper PMC11246515
± gives the standard deviation of the averaged measurements.

Test: total protein half-life in vivo (active degradation + dilution); higher = more stable protein
[1] = wild type E. coli NCM3722, growth: N-lim chemostat, doubling time 6 h
[2] = E. coli NCM3722 delta-clpP delta-lon delta-hslV, growth: N-lim chemostat, doubling time 6 h
[3] = E. coli NCM3722 delta-lon, growth: N-lim chemostat, doubling time 6 h
[4] = E. coli NCM3722 delta-smpB, growth: N-lim chemostat, doubling time 6 h
[5] = wild type E. coli NCM3722, growth: C-lim chemostat, doubling time 3 h
[6] = wild type E. coli NCM3722, growth: C-lim chemostat, doubling time 6 h
[7] = wild type E. coli NCM3722, growth: C-lim chemostat, doubling time 12 h
[8] = wild type E. coli NCM3722, growth: N-lim chemostat, doubling time 12 h
[9] = wild type E. coli NCM3722, growth: P-lim chemostat, doubling time 6 h
[10] = E. coli NCM3722 delta-clpP, growth: N-lim chemostat, doubling time 6 h
[11] = E. coli NCM3722 delta-hslV, growth: N-lim chemostat, doubling time 6 h
[12] = wild type E. coli NCM3722, growth: P-lim chemostat, doubling time 12 h

| Sequence | total protein half-life in vivo [1] [h] | total protein half-life in vivo [2] [h] | total protein half-life in vivo [3] [h] | total protein half-life in vivo [4] [h] | total protein half-life in vivo [5] [h] | total protein half-life in vivo [6] [h] | total protein half-life in vivo [7] [h] | total protein half-life in vivo [8] [h] | total protein half-life in vivo [9] [h] | total protein half-life in vivo [10] [h] | total protein half-life in vivo [11] [h] | total protein half-life in vivo [12] [h] |
| --- | --- | --- | --- | --- | --- | --- | --- | --- | --- | --- | --- | --- |
| MKRRLIIAASLFVFNLSSGFAAENIPFSPQPPEIHAGSWVLMDYTTGQILTAGNEHQQRNPASLTKLMTGYVVDRAIDSHRITPDDIVTVGRDAWAKDNPVFVGSSLMFLKEGDRVSVRDLSRGLIVDSGNDACVALADYIAGGQRQFVEMMNNYAEKLHLKDTHFETVHGLDAPGQHSSAYDLAVLSRAIIHGEPEFYHMYSEKSLTWNGITQQNRNGLLWDKTMNVDGLKTGHTSGAGFNLIASAVDGQRRLIAVVMGADSAKGREEEARKLLRWGQQNFTTVQILHRGKKVGTERIWYGDKENIDLGTEQEFWMVLPKAEIPHIKAKYTLDGKELTAPISAHQRVGEIELYDRDKQVAHWPLVTLESVGEGSMFSRLSDYFHHKA | 7.4 | – | – | – | – | – | – | – | – | – | – | – |
| MKRTMLYLSLLAVSCSVSAAKYPVLTESSPEKAGFNVERLNQMDRWISQQVDVGYPSVNLLIIKDNQIVYRKAWGAAKKYDGSVLMEQPVKATTGTLYDLASNTKMYATNFALQKLMSEGKLHPDDRIAKYIPGFADSPNDTIKGKNTLRISDLLHHSGGFPADPQYPNKAVAGALYSQDKGQTLEMIKRTPLEYQPGSKHIYSDVDYMLLGFIVESVTGQPLDRYVEESIYRPLGLTHTVFNPLLKGFKPQQIAATELNGNTRDGVIHFPNIRTSTLWGQVHDEKAFYSMGGVSGHAGLFSNTGDIAVLMQTMLNGGGYGDVQLFNAETVKMFTTSSKEDATFGLGWRVNGNATMTPTFGTLASPQTYGHTGWTGTVTVIDPVNHMTIVMLSNKPHSPVADPQKNPNMFESGQLPIATYGWVVDQVYAALKQK | 5.42 ± 0.84 | 6.01 ± 1.4 | 5.56 ± 0.55 | 5.13 ± 0.61 | 3.15 ± 0.17 | 6.3 ± 0.47 | 10.4 ± 1.3 | 11.2 ± 0.13 | 5.84 ± 0.99 | – | – | – |
| MKRVLFFLLMIFVSFGVIADCEIQAKDHDCFTIFAKGTIFSAFPVLNNKAMWRWYQNEDIGEYYWQTELGTCKNNKFTPSGARLLIRVGSLRLNENHAIKGTLQELINTAEKTAFLGDRFRSYIRAGIYQKKSSDPVQLLAVLDNSIMVKYFKDEKPTYARMTAHLPNKNESYECLIKIQHELIRSEEK | – | 1.81 | – | 1.13 | – | – | 10.3 | 4.57 | – | – | – | – |
| MKRWPVFPRSLRQLVMLAFLLILLPLLVLAWQAWQSLNALSDQAALVNRTTLIDARRSEAMTNAALEMERSYRQYCVLDDPTLAKVYQSQRKRYSEMLDAHAGVLPDDKLYQALRQDLHNLAQLQCNNSGPDAAAAARLEAFASANTEMVQATRTVVFSRGQQLQREIAERGQYFGWQSLVLFLVSLVMVLLFTRMIIGPVKNIERMINRLGEGRSLGNSVSFSGPSELRSVGQRILWLSERLSWLESQRHQFLRHLSHELKTPLASMREGTELLADQVVGPLTPEQKEVVSILDSSSRNLQKLIEQLLDYNRKQADSAVELENVELAPLVETVVSAHSLPARAKMMHTDVDLKATACLAEPMLLMSVLDNLYSNAVHYGAESGNICLRSSLHGARVYIDVINTGTPIPQEERAMIFEPFFQGSHQRKGAVKGSGLGLSIARDCIRRMQGELYLVDESGQDVCFRIELPSSKNTK | 6.16 ± 0.12 | 6.52 ± 0.67 | 6.41 ± 0.28 | – | 3.12 ± 0.098 | – | 10.8 ± 0.2 | 13.1 ± 1 | 6.8109 ± 0.0031 | 6.72 ± 0.21 | 6.56 ± 0.21 | 12.6 ± 0.89 |
| MKSVLKVSLAALTLAFAVSSHAADKKLVVATDTAFVPFEFKQGDKYVGFDVDLWAAIAKELKLDYELKPMDFSGIIPALQTKNVDLALAGITITDERKKAIDFSDGYYKSGLLVMVKANNNDVKSVKDLDGKVVAVKSGTGSVDYAKANIKTKDLRQFPNIDNAYMELGTNRADAVLHDTPNILYFIKTAGNGQFKAVGDSLEAQQYGIAFPKGSDELRDKVNGALKTLRENGTYNEIYKKWFGTEPK [P0AEQ3] | 6.43 ± 0.32 | 4.537 ± 0.04 | 6.824 ± 0.065 | 6.44 ± 0.68 | 3.38 ± 0.19 | 6.48 ± 0.26 | 11.8 ± 1.3 | 13.1 ± 0.91 | 6.13 ± 0.34 | 6.03 ± 2.1 | 6.84 ± 0.17 | 14.08 ± 0.14 |
| MKTAKEYSDTAKREVSVDVDALLAAINEISESEVHRSQNDSEHVSVDGREYHTWRELADAFELDIHDFSVSEVNR | – | 4.23 ± 0.73 | 0.678 | 0.551 | – | – | 1.38 | 1.03 | – | 1.58 | – | – |
| MKTALLLEKLEGQLATLRQRCAPVSQFATLSARFDRHLFQTRATTLQACLDEAGDNLAALRHAVEQQQLPQVAWLAEHLAAQLEAIAREASAWSLREWDSAPPKIARWQRKRIQHQDFERRLREMVAERRARLARVTDLVEQQTLHREVEAYEARLARCRHALEKIENRLARLTR | 2.58 ± 0.12 | 4.68 ± 0.36 | 4.09 ± 0.54 | 2.21 ± 0.046 | 1.955 ± 0.0034 | 3.69 ± 0.51 | 6.06 ± 3.5 | 2.85 ± 0.6 | 2.92 ± 0.094 | 2.5 ± 0.12 | 2.39 ± 0.15 | 5.17 ± 0.34 |
| MKTAYIAKQRQISFVKSHFSRQLEERLGLIEVQAPILSRVGDGTQDNLSGCEKAVQVKVKALPDAQFEVVHSLAKWKRQTLGQHDFSAGEGLYTHMKALRPDEDRLSPLHSVYVDQWDWERVMGDGERQFSTLKSTVEAIWAGIKATEAAVSEEFGLAPFLPDQIHFVHSQELLSRYPDLDAKGRERAIAKDLGAVFLVGIGGKLSDGHRHDVRAPDYDDWSTPSELGHAGLNGDILVWNPVLEDAFELSSMGIRVDADTLKHQLALTGDEDRLELEWHQALLRGEMPQTIGGGIGQSRLTMLLLQLPHIGQVQCGVWPAAVRESVPSLL | 2.29 ± 0.19 | 2.59 ± 0.04 | – | 2.771 ± 0.0098 | 2.53 ± 0.085 | 2.9 ± 0.16 | 5.26 ± 0.4 | 4.02 ± 1 | 2.37 ± 0.58 | 4.18 ± 2.2 | 3.06 ± 0.71 | 5.24 ± 1.9 |
| MKTINTVVAAMALSTLSFGVFAAEPVTASQAQNMNKIGVVSADGASTLDALEAKLAEKAAAAGASGYSITSATNNNKLSGTAVIYK [P0AAX3] | – | – | – | 0.346 | – | – | – | – | – | – | – | – |
